Measured values from US20060287501A1 (Pieris, published 2006).
Residue numbers refer to the chain shown, from its start. In names and notes the source's numbering stands. Values belong to the binder of their own block, whether it stands above or below them.

What was measured:
[1] = molecular target: T1, recombinant Nogo-A fragment NI-Fr2 (rat, UniProt Q9JK11 233-941, labelled with digoxigenin (molar ratio 5:1) in the colony screening assay); test: filter-sandwich colony screening assay; Fab-ABD (pASK106) captured on HSA membrane, digoxigenin-labelled NI-Fr2
T1 construct: Truncated rat Nogo-A with C-terminal Strep-tag, made in the E. coli periplasm; also called MI-Fr2; wild-type NI-Fr2
T1 sequence: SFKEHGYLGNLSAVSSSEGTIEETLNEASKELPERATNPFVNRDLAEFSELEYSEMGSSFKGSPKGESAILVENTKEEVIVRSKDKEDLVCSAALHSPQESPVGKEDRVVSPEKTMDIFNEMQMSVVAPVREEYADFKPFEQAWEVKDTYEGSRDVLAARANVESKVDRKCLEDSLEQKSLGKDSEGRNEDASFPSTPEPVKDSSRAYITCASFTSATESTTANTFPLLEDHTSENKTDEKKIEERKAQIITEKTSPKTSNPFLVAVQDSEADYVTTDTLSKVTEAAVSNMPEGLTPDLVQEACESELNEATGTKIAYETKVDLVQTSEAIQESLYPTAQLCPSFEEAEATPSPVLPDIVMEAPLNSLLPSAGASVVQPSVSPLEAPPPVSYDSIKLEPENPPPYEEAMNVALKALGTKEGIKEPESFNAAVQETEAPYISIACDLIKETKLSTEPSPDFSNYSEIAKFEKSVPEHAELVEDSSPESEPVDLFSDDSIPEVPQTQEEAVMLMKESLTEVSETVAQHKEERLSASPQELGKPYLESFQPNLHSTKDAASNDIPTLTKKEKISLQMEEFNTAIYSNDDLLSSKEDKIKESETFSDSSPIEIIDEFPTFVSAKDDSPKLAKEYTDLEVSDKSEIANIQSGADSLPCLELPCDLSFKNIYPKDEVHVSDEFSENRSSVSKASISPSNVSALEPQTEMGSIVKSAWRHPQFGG
Method: The mutagenized gene fragment was recloned on the expression vector pASK106-IN1 (encoding a Fab fragment fused with an albumin-binding domain to the C-terminus of its light chain; König and Skerra, supra). E. coli JM83 was transformed with the ligation mixture and transformed cells harboring the pASK106 vector were plated on a hydrophilic membrane (GVWP, 0.22 μm; Millipore, Bedford, Mass.), placed on a petri dish with LB/Amp agar, such that approximately 500 colonies were obtained, and incubated at 37° C. for 8 to 9 h. In the meantime a hydrophobic membrane (Immobilon-P, 0.45 μm; Millipore) was coated with 10 mg/ml human serum albumin (HSA; Sigma, Deisenhofen, Germany) in PBS for four hours and blocked with 3% (w/v) BSA (Roth, Karlsruhe, Germany), 0.5% (v/v) Tween 20 in PBS. The membrane was washed twice with PBS, soaked in LB/Amp containing […], and placed on an LB/Amp agar plate supplemented with […]. The first membrane, carrying tiny colonies of the transformed cells, was then placed onto the second (hydrophobic) membrane. The filter sandwich was incubated for 16 h at 22° C. During this period the mutated IN-1 Fab fragments became secreted—and partially released from the colonies by leakage from the bacterial periplasm—and finally immobilized on the lower membrane via complex formation between HSA and ABD.
(§1) The first membrane with the still viable colonies was transferred to a fresh LB/Amp agar plate and stored at 4° C. The second membrane was washed three times in PBS containing 0.1% (v/v) Tween 20 (PBS/T) and the immobilized Fab fragments, each in a spot 30 corresponding to the position of the original colony, were probed for antigen binding. To this end recombinant Nogo-A fragment NI-FR2 was labeled at a molar ratio of 5:1 with digoxigenin-3-O-methylcarbonyl-e-aminocaproic acid N-hydroxy-succinimide ester (Roche Diagnostics, Mannheim, Germany) and applied to the membrane for one hour at a concentration of 30 or 50 μg/ml in PBS/T. After washing three times with PBS/T the membrane was incubated for one hour with 0.75 u/ml anti-digoxigenin Fab fragment conjugated with alkaline phosphatase (Roche Diagnostics) in 10 ml PBS/T. The membrane was finally washed twice with PBS/T and twice with PBS and the signals were developed using standard chromogenic substrates as described (Schlehuber et al., supra).

[2] = molecular target: T2, mutant of NI-Fr2 devoid of Cys^574 and Cys^676 (rat, UniProt Q9JK11 233-940, labelled with digoxigenin in the colony screening assay); test: filter-sandwich colony screening assay; Fab-ABD (pASK106) captured on HSA membrane, labelled NI-Fr2 mutant (no Cys574, Cys676) at 30 µg/ml
T2 sequence: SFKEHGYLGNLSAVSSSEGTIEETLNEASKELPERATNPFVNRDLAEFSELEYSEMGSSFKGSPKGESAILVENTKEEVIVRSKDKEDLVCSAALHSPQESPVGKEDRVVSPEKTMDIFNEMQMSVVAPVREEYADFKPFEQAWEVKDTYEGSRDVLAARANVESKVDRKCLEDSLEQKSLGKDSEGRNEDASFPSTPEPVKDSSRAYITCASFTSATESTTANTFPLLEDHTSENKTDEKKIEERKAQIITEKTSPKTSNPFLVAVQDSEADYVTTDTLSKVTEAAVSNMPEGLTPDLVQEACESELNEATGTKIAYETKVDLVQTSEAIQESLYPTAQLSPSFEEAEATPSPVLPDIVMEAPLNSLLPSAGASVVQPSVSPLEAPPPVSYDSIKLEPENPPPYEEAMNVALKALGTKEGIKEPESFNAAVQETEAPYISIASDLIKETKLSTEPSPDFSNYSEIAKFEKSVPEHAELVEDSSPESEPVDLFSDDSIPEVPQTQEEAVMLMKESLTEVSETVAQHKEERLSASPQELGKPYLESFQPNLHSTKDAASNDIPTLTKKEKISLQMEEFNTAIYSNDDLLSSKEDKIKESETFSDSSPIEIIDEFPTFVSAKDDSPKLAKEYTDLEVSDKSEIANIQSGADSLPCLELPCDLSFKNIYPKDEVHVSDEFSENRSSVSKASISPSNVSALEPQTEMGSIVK
Method: The first membrane, carrying tiny colonies of the transformed cells, was then placed onto the second (hydrophobic) membrane. The filter sandwich was incubated for 16 h at 22° C. During this period the mutated IN-1 Fab fragments became secreted—and partially released from the colonies by leakage from the bacterial periplasm—and finally immobilized on the lower membrane via complex formation between HSA and ABD.
as §1, with “supra). Colonies corresponding to signals with an intensity above average were identified, recovered from the first membrane, and propagated for further analysis of their recombinant gene product.” for “supra).”
CDR-L3 forms a connecting loop between two neighboring beta-strands such that the positions L91 and L92 are in close spatial proximity with L96. […] This time the stringency of selection was raised by lowering the concentration of the recombinant antigen - a mutant of NI-Fr2 devoid of Cys⁵⁷⁴ and Cys⁶⁷⁶—from 50 μg/ml to 30 μg/ml.

[3] = molecular target: T1, recombinant Nogo-A fragment NI-Fr2; test: ELISA; NI-Fr2 coated
Method: (§2) ELISA was carried out in a 96 well microtitre plate (Becton Dickinson, Heidelberg, Germany) at ambient temperature with incubation steps of 1 h unless otherwise stated. Three washing steps with PBS/T were used after each incubation, and residual liquid was removed thoroughly. The wells were coated for 4 h with 50 μl of a solution of MI-Fr2 at concentrations between 180 and 200 μg/ml in PBS buffer and then blocked with 200 μl 3% (w/v) BSA, 0.5% (v/v) Tween 20 in PBS. After washing, 50 μl of the purified recombinant Fab fragment was applied at a dilution series in PBS/T. The wells were then incubated with 50 μl anti-human Cκ antibody conjugated with alkaline phosphatase (Sigma), diluted 1:1000 in PBS/T. Signals were finally developed in the presence of p-nitrophenyl phosphate (Voss and Skerra, (1997) Protein Eng., 10, 975-982). Enzymatic activity was measured at 25° C. as the change in absorbance at 405 nm per min with a SpectraMAX 250 instrument (Molecular Devices, Sunnyvale, Calif.). The data were corrected for background values determined in wells that were merely coated with BSA and fitted by non-linear least squares regression as described by Voss and Skerra, supra
Unfortunately, the I.2.6 mutant of the IN-1 Fab fragment was produced as a soluble protein in E. coli at a much lower level, with a relative yield of 5% after purification (0.04 mg L⁻¹ OD⁻¹ vs. 0.8 mg L⁻¹ OD⁻¹ for the wild-type IN-1 Fab fragment). […] Following earlier substitution experiments concerning position L96 (cf. above) attempts were made to replace the Cys residue in the I.2.6 mutant by small apolar side chains such as those of Ala, Val, Met, Leu, and Ile. The substitutions were introduced by site-directed mutagenesis and all corresponding recombinant Fab fragments were produced and purified as before, resulting in yields that were similar again to the wild type IN-1 Fab fragment.

[4] = molecular target: T1, recombinant Nogo-A fragment NI-Fr2; test: ELISA, wells coated with NI-Fr2, bound Fab detected with anti-human Ckappa antibody-alkaline phosphatase, delta A405/delta t
Method: Antigen-binding activity of the mutant Fab fragments was subsequently tested by ELISA using the recombinant NI-Fr2 for coating of the microtitre plate wells (FIG. 2).
as §2

binding result [2]: binds
B2: II.1.1 Fab fragment (Fab, V domains shown)
VH: EVKLHESGPGLVRPGTSVKISCKASGYTFTNYWLGWVKQRPGHGLEWIGDIYPGGGYTNYNEKFKGKATLTADTSSSTAYMQLSSLTSEDSAVYFCARFYYGSSYWYFDVWGQGTTVTVSS
VL: DIELTQSPAIMAASVGETVTITCGASENIYGALNWYQRKQGKSPQLLIYGATNLADGMSSRFSGSGSGRQYSLKISSLHPDDVATYYCQNRKRVPVTFGAGTKLEIK
notes: Chimeric Fab, human IgG1/kappa constant domains

binding result [2]: binds
B3: II.1.3 Fab fragment (Fab, V domains shown)
VH: B2 VH
VL: B2 VL with R91M
notes: as for B2

binding result [2]: binds
B8: II.1.7 Fab fragment (Fab, V domains shown)
VH: B2 VH
VL: B2 VL with R91L
notes: as for B2

binding result [1]: binds
B9: I.2.4 Fab fragment (IN-1 mutant) (Fab, V domains shown)
VH: B2 VH
VL: B2 VL with R91V, K92L, R93G, V94T, V96F
notes: as for B2

binding result [3]: no binding
B10: I.2.6 Fab fragment with Cys L96 replaced by Ile (Fab, V domains shown)
VH: B2 VH
VL: B2 VL with R91V, K92L, V96I
notes: as for B2

binding result [1]: binds
B13: I.1.11 Fab fragment (IN-1 mutant) (Fab, V domains shown)
VH: B2 VH
VL: B2 VL with R91V, K92L, R93Y, V94T, V96C
notes: as for B2

Second part, the binder before the results:

B1: I.1.6 Fab fragment (IN-1 mutant) (Fab, V domains shown)
VH: B2 VH
VL: B2 VL with R91V, K92L, R93N, V94L, V96C
notes: as for B2
binding result [1]: binds

B4: I.2.6 Fab fragment with Cys L96 replaced by Met (Fab, V domains shown)
VH: B2 VH
VL: B2 VL with R91V, K92L, V96M
notes: as for B2
binding result [3]: no binding

B5: I.2.6(L96V) Fab fragment (Fab, V domains shown)
VH: B2 VH
VL: B2 VL with R91V, K92L
notes: Chimeric Fab, human IgG1/kappa constant domains; also called I.2.6(^L96Val) Fab fragment; replacement Cys^L96->Val
binding result [4]: binds

B6: I.4.4 Fab fragment (IN-1 mutant) (Fab, V domains shown)
VH: B2 VH
VL: B2 VL with R91V, K92L, R93D, V94R, V96L
notes: as for B2
binding result [1]: binds

B7: I.2.5 Fab fragment (IN-1 mutant) (Fab, V domains shown)
VH: B2 VH
VL: B2 VL with R91V, K92L, R93P, V94C
notes: as for B2
binding result [1]: binds

B11: I.2.6 Fab fragment with Cys L96 replaced by Leu (Fab, V domains shown)
VH: B2 VH
VL: B2 VL with R91V, K92L, V96L
notes: as for B2
binding result [3]: no binding

B12: I.2.6 Fab fragment with Cys L96 replaced by Ala (Fab, V domains shown)
VH: B2 VH
VL: B2 VL with R91V, K92L, V96A
notes: as for B2
binding result [3]: no binding
